Results: publication PMC4587843, “Vascular Smooth Muscle Cells Stimulate Platelets and Facilitate Thrombus Formation through Platelet CLEC-2: Implications in Atherothrombosis” (PLoS ONE, 2015)

Assays:
[1] = biological target: native CLEC-2 on the surface of murine platelets (mouse (endogenous in platelets)) (UniProt Q9JL99)
[2] = biological target: T1, recombinant extracellular domain of human CLEC-2 expressed as a dimeric rabbit immunoglobulin Fc domain … (human, UniProt Q9P126 55-229); test: SPR; hCLEC-2-rFc2 and control rFc2 amine-coupled to a CM5 chip, Biacore X; S100A13 in modified Tyrode's buffer with 1 mM CaCl2 perfused at 20 uL/min, 25 C; control surface subtracted; Kd by BIAevaluation; conditions: both partners purified
T1 construct: CLEC-2, human, extracellular domain; also called hCLEC-2-rFc2; human CLEC-2-rabbit Fc2; source: recombinant, generated as described previously [2]
T1 sequence (Q9P126 55-229): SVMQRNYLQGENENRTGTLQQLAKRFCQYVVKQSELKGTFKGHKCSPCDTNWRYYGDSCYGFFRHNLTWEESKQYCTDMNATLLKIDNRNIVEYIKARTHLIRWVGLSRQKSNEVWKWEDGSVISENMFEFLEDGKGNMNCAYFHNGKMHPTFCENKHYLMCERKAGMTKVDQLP

native CLEC-2 on the surface of murine platelets (mouse (endogenous in platelets)), sequence (Q9JL99 whole entry, the tested form may be a part): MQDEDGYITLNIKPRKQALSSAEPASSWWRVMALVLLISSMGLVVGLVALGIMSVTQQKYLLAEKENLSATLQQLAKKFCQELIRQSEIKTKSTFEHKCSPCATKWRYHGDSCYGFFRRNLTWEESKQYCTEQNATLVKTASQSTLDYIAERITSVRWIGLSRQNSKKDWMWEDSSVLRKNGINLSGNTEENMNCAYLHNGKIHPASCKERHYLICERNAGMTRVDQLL

Kd [2]	Molecule	release of 5-HT or PDGF from washed murine WT platelets, percent of the total stored, maximum concentration of rhodocytin [1]
–	rhodocytin (complex)	60%
137 nM	GST-tagged S100A13 recombinant protein (natural protein, UniProt Q99584 1-98, looked up, S100A13; also called S100A13-GST; recombinant S100A13-GST; source: bought: CycLex Co., Ltd. (Japan)) MAAEPLTELEESIETVVTTFFTFARQEGRKDSLSVNEFKELVTQQLPHLLKDVGSLDEKMKSLDVNQDSELKFNEYWRLIGELAKEIRKKKDLKIRKK	–
